Assay results published in patent publication US20060229438A1, “Monoclonal antibody derived peptide inhibitors for mycobacterial dna gyrase” (priority 2002, published 2006).
In brackets after ≈: the same amount, converted by molar mass.

Key:
M. smegmatis DNA gyrase = target: T1, M. smegmatis DNA gyrase (Mycolicibacterium smegmatis, UniProt Q59556); assay: DNA supercoiling assay, M. smegmatis DNA gyrase; assay type: biochemical
T1 construct: made in house

[1] = system: DNA gyrase from ciprofloxacin resistant M. smegmatis mc^2155 strain; assay type: biochemical
[2] = system: ciprofloxacin resistant M. smegmatis mc^2155 strain; assay: Ciprofloxacin susceptibility (MIC50) of resistant strain; assay type: cell-based; settings: Mycolicibacterium smegmatis
[3] = target: T2, M. smegmatis DNA gyrase A subunit (GyrA) (Mycobacterium smegmatis, UniProt P48354 1-842); assay: SPR (BIAcore 2000), M. smegmatis GyrA immobilized on CM5 chip
T2 construct: also called M. smegmatis GyrA
T2 sequence (P48354 whole entry): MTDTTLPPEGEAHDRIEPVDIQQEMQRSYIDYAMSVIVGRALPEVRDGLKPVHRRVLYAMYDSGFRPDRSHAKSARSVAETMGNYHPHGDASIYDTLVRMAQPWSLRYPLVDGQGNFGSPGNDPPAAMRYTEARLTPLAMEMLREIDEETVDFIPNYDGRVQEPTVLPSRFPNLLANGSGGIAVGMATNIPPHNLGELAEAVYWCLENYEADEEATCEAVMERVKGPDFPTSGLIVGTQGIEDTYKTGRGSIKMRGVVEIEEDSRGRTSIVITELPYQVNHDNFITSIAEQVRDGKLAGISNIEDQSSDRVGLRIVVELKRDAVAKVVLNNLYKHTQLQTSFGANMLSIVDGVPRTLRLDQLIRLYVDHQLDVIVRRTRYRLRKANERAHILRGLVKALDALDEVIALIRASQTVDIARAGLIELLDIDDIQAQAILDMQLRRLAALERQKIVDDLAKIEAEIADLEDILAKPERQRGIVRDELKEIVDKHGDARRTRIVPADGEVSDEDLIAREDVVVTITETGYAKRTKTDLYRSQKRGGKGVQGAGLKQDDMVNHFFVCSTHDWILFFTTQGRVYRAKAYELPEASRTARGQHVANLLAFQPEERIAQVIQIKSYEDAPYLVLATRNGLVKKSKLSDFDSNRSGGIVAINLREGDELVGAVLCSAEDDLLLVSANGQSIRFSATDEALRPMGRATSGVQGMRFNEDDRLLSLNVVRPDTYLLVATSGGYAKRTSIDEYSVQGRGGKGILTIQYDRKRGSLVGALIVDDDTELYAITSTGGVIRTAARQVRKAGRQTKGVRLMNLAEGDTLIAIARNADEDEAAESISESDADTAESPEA
Procedure: Binding parameters were determined by Surface Plasmon Resonance (SPR) spectroscopy using a BIAcore 2000 system, Uppsala, Sweden. The over-expressed and purified M. smegmatis GyrA was immobilized on the CM5 sensor chip at a concentration of 400 resonance units (RU) as per manufacturer's instructions. All measurements were carried out in a continuous flow of HBS buffer (10 mM HEPES, 150 mM NaCl, 5 mM EDTA and 0.05 % Surfactant P-20, pH 7.4) at 10 μl/min. […] The kinetic data were analyzed using the BIA evaluation software (Version 3.0). The surface was regenerated by a pulse of 5 μL of 100 mM NaOH for further experimentation as required.

T1 sequence (Q59556 whole entry): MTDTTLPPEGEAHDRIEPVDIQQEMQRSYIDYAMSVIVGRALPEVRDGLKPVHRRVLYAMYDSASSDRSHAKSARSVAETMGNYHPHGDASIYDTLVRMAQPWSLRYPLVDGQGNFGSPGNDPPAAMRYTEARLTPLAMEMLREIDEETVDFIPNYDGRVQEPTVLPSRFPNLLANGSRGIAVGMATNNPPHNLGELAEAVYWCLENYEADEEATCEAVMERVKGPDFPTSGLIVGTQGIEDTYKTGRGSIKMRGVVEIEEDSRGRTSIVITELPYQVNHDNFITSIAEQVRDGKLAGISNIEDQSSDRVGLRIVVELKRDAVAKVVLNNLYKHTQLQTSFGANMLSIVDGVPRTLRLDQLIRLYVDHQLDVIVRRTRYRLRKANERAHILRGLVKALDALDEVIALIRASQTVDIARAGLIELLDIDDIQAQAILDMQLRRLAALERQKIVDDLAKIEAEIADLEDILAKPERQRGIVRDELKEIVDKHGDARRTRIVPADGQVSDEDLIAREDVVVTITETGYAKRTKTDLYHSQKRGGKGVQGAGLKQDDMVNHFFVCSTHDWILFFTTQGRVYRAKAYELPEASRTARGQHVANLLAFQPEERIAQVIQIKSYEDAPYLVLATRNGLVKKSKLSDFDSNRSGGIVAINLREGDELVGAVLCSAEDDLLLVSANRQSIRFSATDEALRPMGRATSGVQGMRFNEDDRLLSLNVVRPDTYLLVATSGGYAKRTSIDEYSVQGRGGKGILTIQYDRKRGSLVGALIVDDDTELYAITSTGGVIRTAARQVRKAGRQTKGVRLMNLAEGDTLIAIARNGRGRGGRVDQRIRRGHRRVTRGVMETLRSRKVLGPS
T1 sequence (P0C559 2-675, further chain): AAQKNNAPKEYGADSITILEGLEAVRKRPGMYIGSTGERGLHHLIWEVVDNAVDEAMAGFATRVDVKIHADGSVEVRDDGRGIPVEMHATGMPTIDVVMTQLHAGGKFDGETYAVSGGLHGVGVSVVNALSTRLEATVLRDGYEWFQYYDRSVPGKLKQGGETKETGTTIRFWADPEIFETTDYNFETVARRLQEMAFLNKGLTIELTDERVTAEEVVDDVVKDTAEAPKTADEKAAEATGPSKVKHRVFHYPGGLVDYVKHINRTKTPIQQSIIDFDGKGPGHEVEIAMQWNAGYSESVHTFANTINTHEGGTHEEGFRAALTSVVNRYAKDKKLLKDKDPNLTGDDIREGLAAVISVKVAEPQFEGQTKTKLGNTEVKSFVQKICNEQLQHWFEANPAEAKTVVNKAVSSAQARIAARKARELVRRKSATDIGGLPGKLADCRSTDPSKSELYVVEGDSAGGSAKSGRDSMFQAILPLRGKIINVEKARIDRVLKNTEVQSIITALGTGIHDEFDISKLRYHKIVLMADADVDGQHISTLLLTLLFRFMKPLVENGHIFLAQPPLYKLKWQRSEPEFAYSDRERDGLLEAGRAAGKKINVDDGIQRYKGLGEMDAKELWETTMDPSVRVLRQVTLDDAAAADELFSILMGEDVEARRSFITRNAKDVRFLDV

In the case of KASGYSFTVYYIYWVK [CDR:H1], the “peptide concentration for complete inhibition of enzyme activity” value (M. smegmatis DNA gyrase; supercoiling activity) is reported as 5 to 10 µM and the “concentration at which DNA supercoiling activity was inhibited” value [1] is reported as 10 µM.

In the case of `O=C(O)c1cn(C2CC2)c2cc(N3CCNCC3)c(F)cc2c1=O` [ciprofloxacin, reference compound], the IC50 (M. smegmatis DNA gyrase) is reported as about 15.1 µM and the MIC50 [2] is reported as 64 µg/mL (≈ 193 µM).

B1: scFv:GyrA, engineered single chain antibody of MsGyrA:C3 (scFv)
scFv: AQVKLQQSGAELVRPGASVKLSCKASGYSFTVYYIYWVKQRPGQALEWIGEINPSNGGTNFNEKFKTKATLTVDKSTSTVYMQLSSLTSEDSAVYYCTRWGLRRGFAYWGQGTTVTVSSSGGGSGGGGSGGGGSDIELTQSPKSMSMSVGERVTLSCKASENVGTHVSWYQQRPEESPKLLIYGASNRYTGVPDRFTGSGSATDFTLTISNVQAEDLADYHCGQTYSYPFTFGLGTKLEIKRAAAGAPVPYPDPLEPRAA
notes: also called ScFV:GyraA; soluble scFv
Molecule B1 has a Kd [3] of 0.000217 µM.

B2: scFv:GyrA: engineered single chain antibody fragment of MsGyrA:C3, monovalent 30 kDa polypeptide, Seq. ID #2, encoded by pVNUHMscFv (protein)
scFv: AQVKLQQSGAELVRPGASVKLSCKASGYSFTVYYIYWVKQRPGQALEWIGEINPSNGGTNFNEKFKTKATLTVDKSTSTVYMQLSSLTSEDSAVYYCTRWGLRRGFAYWGQGTTVTVSSSGGGSGGGGSGGGGSDIELTQSPKSMSMSVGERVTLSCKASENVGTHVSWYQQRPEESPKLLIYGASNRYTGVPDRFTGSGSATDFTLTISNVQAEDLADYHCGQTYSYPFTFGLGTKLEIKRAAAGAPVPYPDPLEPRAA
With B2 the “concentration at which the supercoiling reaction was inhibited” value (M. smegmatis DNA gyrase) was 10 to 20 nM, the “inhibition of DNA gyrase supercoiling activity” value (M. smegmatis DNA gyrase; enzyme preincubated with antibody, relaxed pUC18 DNA) was “inhibited” and the “concentration at which DNA supercoiling activity was inhibited” value [1] was 0.05 µM.
